B1: Phospholipid-transporting ATPase ID (Homo sapiens), P98198 (parent)
chain: MTVPKEMPEKWARAQAPPSWSRKKPSWGTEEERRARANDREYNEKFQYASNCIKTSKYNILTFLPVNLFEQFQEVANTYFLFLLILQLIPQISSLSWFTTIVPLVLVLTITAVKDATDDYFRHKSDNQVNNRQSQVLINGILQQEQWMNVCVGDIIKLENNQFVAADLLLLSSSEPHGLCYIETAELDGETNMKVRQAIPVTSELGDISKLAKFDGEVICEPPNNKLDKFSGTLYWKENKFPLSNQNMLLRGCVLRNTEWCFGLVIFAGPDTKLMQNSGRTKFKRTSIDRLMNTLVLWIFGFLVCMGVILAIGNAIWEHEVGMRFQVYLPWDEAVDSAFFSGFLSFWSYIIILNTVVPISLYVSVEVIRLGHSYFINWDKKMFCMKKRTPAEARTTTLNEELGQVEYIFSDKTGTLTQNIMVFNKCSINGHSYGDVFDVLGHKAELGERPEPVDFSFNPLADKKFLFWDPSLLEAVKIGDPHTHEFFRLLSLCHTVMSEEKNEGELYYKAQSPDEGALVTAARNFGFVFRSRTPKTITVHEMGTAITYQLLAILDFNNIRKRMSVIVRNPEGKIRLYCKGADTILLDRLHHSTQELLNTTMDHLNEYAGEGLRTLVLAYKDLDEEYYEEWAERRLQASLAQDSREDRLASIYEEVENNMMLLGATAIEDKLQQGVPETIALLTLANIKIWVLTGDKQETAVNIGYSCKMLTDDMTEVFIVTGHTVLEVREELRKAREKMMDSSRSVGNGFTYQDKLSSSKLTSVLEAVAGEYALVINGHSLAHALEADMELEFLETACACKAVICCRVTPLQKAQVVELVKKYKKAVTLAIGDGANDVSMIKTAHIGVGISGQEGIQAVLASDYSFSQFKFLQRLLLVHGRWSYLRMCKFLCYFFYKNFAFTMVHFWFGFFCGFSAQTVYDQYFITLYNIVYTSLPVLAMGVFDQDVPEQRSMEYPKLYEPGQLNLLFNKREFFICIAQGIYTSVLMFFIPYGVFADATRDDGTQLADYQSFAVTVATSLVIVVSVQIGLDTGYWTAINHFFIWGSLAVYFAILFAMHSNGLFDMFPNQFRFVGNAQNTLAQPTVWLTIVLTTVVCIMPVVAFRFLRLNLKPDLSDTVRYTQLVRKKQKAQHRCMRRVGRTGSRRSGYAFSHQEGFGELIMSGKNMRLSSLALSSFTTRSSSSWIESLRRKKSDSASSPSGGADKPLKG
partner: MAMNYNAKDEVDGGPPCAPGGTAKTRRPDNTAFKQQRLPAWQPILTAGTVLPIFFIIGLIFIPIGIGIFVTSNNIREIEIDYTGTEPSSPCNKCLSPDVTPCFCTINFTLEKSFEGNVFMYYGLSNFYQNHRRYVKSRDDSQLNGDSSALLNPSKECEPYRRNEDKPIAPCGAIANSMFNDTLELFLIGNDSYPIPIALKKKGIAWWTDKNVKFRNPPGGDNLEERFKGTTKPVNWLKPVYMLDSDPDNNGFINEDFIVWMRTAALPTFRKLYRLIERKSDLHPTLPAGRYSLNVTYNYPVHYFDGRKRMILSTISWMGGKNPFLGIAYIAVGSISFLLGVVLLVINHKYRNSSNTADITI
B2: Phospholipid-transporting ATPase ID (Homo sapiens), P98198 (parent)
chain: B1 chain
partner: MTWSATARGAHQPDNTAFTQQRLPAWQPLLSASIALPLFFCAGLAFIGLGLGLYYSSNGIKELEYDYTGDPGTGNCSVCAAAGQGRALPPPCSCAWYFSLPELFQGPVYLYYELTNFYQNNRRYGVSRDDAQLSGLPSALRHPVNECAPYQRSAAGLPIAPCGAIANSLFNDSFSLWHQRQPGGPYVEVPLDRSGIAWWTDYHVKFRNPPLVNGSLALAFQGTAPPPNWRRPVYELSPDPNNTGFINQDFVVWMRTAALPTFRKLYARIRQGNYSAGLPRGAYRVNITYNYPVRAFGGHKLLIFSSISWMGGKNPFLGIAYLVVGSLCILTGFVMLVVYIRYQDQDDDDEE
B3: Phospholipid-transporting ATPase IC (Homo sapiens), O43520 (parent)
chain: MSTERDSETTFDEDSQPNDEVVPYSDDETEDELDDQGSAVEPEQNRVNREAEENREPFRKECTWQVKANDRKYHEQPHFMNTKFLCIKESKYANNAIKTYKYNAFTFIPMNLFEQFKRAANLYFLALLILQAVPQISTLAWYTTLVPLLVVLGVTAIKDLVDDVARHKMDKEINNRTCEVIKDGRFKVAKWKEIQVGDVIRLKKNDFVPADILLLSSSEPNSLCYVETAELDGETNLKFKMSLEITDQYLQREDTLATFDGFIECEEPNNRLDKFTGTLFWRNTSFPLDADKILLRGCVIRNTDFCHGLVIFAGADTKIMKNSGKTRFKRTKIDYLMNYMVYTIFVVLILLSAGLAIGHAYWEAQVGNSSWYLYDGEDDTPSYRGFLIFWGYIIVLNTMVPISLYVSVEVIRLGQSHFINWDLQMYYAEKDTPAKARTTTLNEQLGQIHYIFSDKTGTLTQNIMTFKKCCINGQIYGDHRDASQHNHNKIEQVDFSWNTYADGKLAFYDHYLIEQIQSGKEPEVRQFFFLLAVCHTVMVDRTDGQLNYQAASPDEGALVNAARNFGFAFLARTQNTITISELGTERTYNVLAILDFNSDRKRMSIIVRTPEGNIKLYCKGADTVIYERLHRMNPTKQETQDALDIFANETLRTLCLCYKEIEEKEFTEWNKKFMAASVASTNRDEALDKVYEEIEKDLILLGATAIEDKLQDGVPETISKLAKADIKIWVLTGDKKETAENIGFACELLTEDTTICYGEDINSLLHARMENQRNRGGVYAKFAPPVQESFFPPGGNRALIITGSWLNEILLEKKTKRNKILKLKFPRTEEERRMRTQSKRRLEAKKEQRQKNFVDLACECSAVICCRVTPKQKAMVVDLVKRYKKAITLAIGDGANDVNMIKTAHIGVGISGQEGMQAVMSSDYSFAQFRYLQRLLLVHGRWSYIRMCKFLRYFFYKNFAFTLVHFWYSFFNGYSAQTAYEDWFITLYNVLYTSLPVLLMGLLDQDVSDKLSLRFPGLYIVGQRDLLFNYKRFFVSLLHGVLTSMILFFIPLGAYLQTVGQDGEAPSDYQSFAVTIASALVITVNFQIGLDTSYWTFVNAFSIFGSIALYFGIMFDFHSAGIHVLFPSAFQFTGTASNALRQPYIWLTIILAVAVCLLPVVAIRFLSMTIWPSESDKIQKHRKRLKAEEQWQRRQQVFRRGVSTRRSAYAFSHQRGYADLISSGRSIRKKRSPLDAIVADGTAEYRRTGDS
partner: B1 partner
B4: Phospholipid-transporting ATPase IC (Homo sapiens), O43520 (parent)
chain: B3 chain
partner: B2 partner

Variants of: B1
Conditions: with cc50a_human TMEM30A

Variant | effect of a mutation on the interaction
D411N | decreasing interaction strength

Variants of: B2
Conditions: with cc50b_human TMEM30B

Variant | effect of a mutation on the interaction
D411N | with no effect

Variants of: B3
Conditions: with cc50a_human TMEM30A

Variant | effect of a mutation on the interaction
D454N | decreasing interaction strength

Variants of: B4
Conditions: with cc50b_human TMEM30B

Variant | effect of a mutation on the interaction
D454N | decreasing interaction strength

From IntAct's records for PubMed 20961850
